According to doi:10.1101/2025.06.23.660979:

Experiments:
[1] = biological target: VcLmuA, LmuA of the type II Lamassu system from Vibrio cholerae O1 El (Vibrio cholerae O1 El); test: SEC-MALS
[2] = biological target: VcLmuA, LmuA of the type II Lamassu system from Vibrio cholerae O1 El (Vibrio cholerae O1 El); test: cryo-EM structure
[3] = biological target: BcLmuA K59A, nuclease-dead BcLmuA of the BcLmuA(K59A)B complex (Bacillus cellulasensis NIO-1130); test: cryo-EM structure

## VcLmuC, LmuC of the type II Lamassu system from Vibrio cholerae O1 El (natural protein)
[1]
  stoichiometry N (LmuC per LmuA): 1
[2]
  stoichiometry N (VcLmuC per VcLmuA): 1

## BcLmuA K59A, nuclease-dead BcLmuA of the BcLmuA(K59A)B complex (natural protein)
[3]
  stoichiometry N: 4

## VcLmuA, LmuA of the type II Lamassu system from Vibrio cholerae O1 El (natural protein)
[2]
  stoichiometry N: 4
